The data set deals with the molecule itself. Nature of the data set: SEC + native gel or EMSA.

“And” between values parts separate entries of the source, which are not always exact repeats. Identical values can stand only once.

B1: CsgG-6xHis (natural protein)
chain: CLTAPPKEAARPTLMPRAQSYKDLTHLPAPTGKIFVSVYNIQDETGQFKPYPASNFSTAVPQSATAMLVTALKDSRWFIPLERQGLQNLLNERKIIRAAQENGTVAINNRIPLQSLTAANIMVEGSIIGYESNVKSGGVGARYFGIGADTQYQLDQIAVNLRVVNVSTGEILSSVNTSKTILSYEVQAGVFRFIDYQRLLEGEVGYTSNEPVMLCLMSAIETGVIFLINDGIDRGLWDLQNKAERQNDILVKYRHMSVPPES
modifications: C16 becomes the lipidated N terminus of the mature protein (said of CsgG in general)
notes: also called recombinant CsgG-6xHis; protein-detergent complex; not shown: His6, C-terminal, kept
As for B1, the “stoichiometry N” value is 7 protomers and 9 protomers.

For the origin of these results see article PMC3173608, “Atomic Resolution Insights into Curli Fiber Biogenesis” (Structure(London, England:1993), 2011).
